± gives the standard deviation of the averaged measurements.
Tested on: ATP
Test: switch fluorescence ratio, 500 uM ATP over buffer (Cy3 cluster intensity, sum of 5 cycles each) (fold (ratio)); higher = stronger signal-on switching upon ATP binding; sequences stand for … in TCGTCGGCAGCGTCAGATGTGTATAAGAGACAGTTTTTTTTTTTTTTTTTTTTTTTTT…TC
Settings: aptamer strand: ATP DNA aptamer (quencher-CACCTGGGGGAGTATTGCGGAGGAAGG + anchor), 100 nM annealed; ATP concentration: 500 uM
Method in brief: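 Clusters carrying Cy3-labelled switching strands on a modified Illumina MiSeq flow-cell were annealed to 100 nM quencher-labelled ATP aptamer and imaged in selection buffer. They were imaged again after 15 min with 500 uM ATP at 22 °C, over five buffer/ATP cycles with NaOH stripping and re-annealing in between. For each cluster, the fluorescence ratio is the summed Cy3 intensity of the target cycles divided by that of the buffer cycles, averaged per switch-domain sequence. Clusters outside 100-1000 RFU were left out.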
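Further: ATP exposure 15 min at 22 °C before imaging.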

Row | Sequence | switch fluorescence ratio
1 | CGTTTAGTTG | 1.002 ± 0.009
2 | CGTTTATTTT | 1.01 ± 0.03
3 | CGTTTGACTT | 0.9947 ± 0.0066
4 | CGTTTGAGGA | 1.01 ± 0.03
5 | CGTTTGAGTT | 0.984 ± 0.026
6 | CGTTTGCAGT | 1.02 ± 0.017
7 | CGTTTGCGAT | 0.989 ± 0.05
8 | CGTTTGGCGT | 1.12 ± 0.2
9 | CGTTTGGGGA | 0.99 ± 0.015
10 | CGTTTGGGTA | 0.999 ± 0.041
11 | CGTTTGTTTG | 0.988 ± 0.021
12 | CGTTTTCGGG | 1.02 ± 0.016
13 | CGTTTTGGGA | 0.98 ± 0.013
14 | CGTTTTGTGC | 1.03 ± 0.042
15 | CGTTTTTAAT | 1.01 ± 0.021
16 | CGTTTTTGAA | 0.99 ± 0.025
17 | CGTTTTTGCT | 0.961 ± 0.05
18 | CGTTTTTTAG | 0.99 ± 0.022
19 | CGTTTTTTAT | 1.02 ± 0.031
20 | CTAAAACAGG | 1.02 ± 0.03
21 | CTAAAACTTG | 1.14 ± 0.13
22 | CTAAAATTGA | 0.985 ± 0.038
23 | CTAAACCGGT | 0.989 ± 0.015
24 | CTAAAGATCG | 1.03 ± 0.049
25 | CTAAATATGA | 0.98 ± 0.035
26 | CTAACATGTG | 0.998 ± 0.03

Row | Sequence | switch fluorescence ratio
27 | CTAACTCGC | 1.04 ± 0.011
28 | CTAACTGAG | 1.03 ± 0.017
29 | CTAAGCCAAT | 1.21 ± 0.023
30 | CTAAGCCGTT | 0.971 ± 0.011
31 | CTAAGGCATG | 1.05 ± 0.0013
32 | CTAAGGCGTT | 0.999 ± 0.013
33 | CTAAGGGATT | 1.01 ± 0.058
34 | CTAATACTTG | 0.9791 ± 0.0024
35 | CTAATAGGAG | 1.004 ± 0.0025
36 | CTAATATGGG | 1.04 ± 0.021
37 | CTAATCAAAT | 0.973 ± 0.019
38 | CTAATCATCT | 1.01 ± 0.039
39 | CTAATGTGCG | 1.15 ± 0.28
40 | CTAATTGTGT | 0.9933 ± 0.0034
41 | CTACCAGGGA | 1.149 ± 0.0019
42 | CTACGAGCTG | 1.06 ± 0.021
43 | CTACGGGGCG | 1.01 ± 0.061
44 | CTAGAAGTAT | 1.024 ± 0.0033
45 | CTAGAATGAT | 1.014 ± 0.0072
46 | CTAGAGGGGG | 0.9711 ± 0.0094
47 | CTAGATGCTT | 1.012 ± 0.0096
48 | CTAGATGGGT | 1.01 ± 0.046
49 | CTAGCTTACT | 1.36 ± 0.065
50 | CTAGGAGCTT | 1 ± 0.044
51 | CTAGGGGATG | 1.03 ± 0.062
52 | CTAGGGTGGA | 1.05 ± 0.023

Row | Sequence | switch fluorescence ratio
53 | CTAGGGTTGT | 1.02 ± 0.045
54 | CTAGGTAGGG | 0.997 ± 0.035
55 | CTAGTACGGG | 1.04 ± 0.031
56 | CTAGTCACGT | 1.003 ± 0.0031
57 | CTAGTCGCGC | 1 ± 0.026
58 | CTAGTTGGTA | 0.994 ± 0.027
59 | CTATAACAAT | 1.02 ± 0.021
60 | CTATACGGTA | 1.128 ± 0.0097
61 | CTATCTTCGG | 0.974 ± 0.038
62 | CTATGCTAGT | 1.01 ± 0.016
63 | CTATGGAAGG | 0.98 ± 0.013
64 | CTATGGGATG | 0.992 ± 0.039
65 | CTATGGGGTG | 1.04 ± 0.04
66 | CTATGTAAAT | 1.01 ± 0.031
67 | CTATGTGGGT | 1.02 ± 0.048
68 | CTATGTGTCA | 0.977 ± 0.05
69 | CTATGTGTCT | 0.97 ± 0.043
70 | CTATGTTATT | 1.01 ± 0.038
71 | CTATGTTCGC | 0.954 ± 0.023
72 | CTATTATAGT | 0.9844 ± 0.0034
73 | CTATTATTCT | 0.983 ± 0.018
74 | CTATTCCGAG | 1.16 ± 0.066
75 | CTATTTACGA | 1.05 ± 0.015
76 | CTATTTAGGG | 0.996 ± 0.024
77 | CTATTTCTAC | 1.03 ± 0.046
78 | CTATTTTAAG | 1.02 ± 0.051

Row | Sequence | switch fluorescence ratio
79 | CTCAAAAGA | 1.11 ± 0.077
80 | CTCAAAAGTA | 1.09 ± 0.11
81 | CTCAACGATT | 1.03 ± 0.048
82 | CTCAAGACGG | 1.06 ± 0.012
83 | CTCAAGGTGA | 1.45 ± 0.11
84 | CTCAATAGCA | 1.036 ± 0.0037
85 | CTCAATCGAA | 1.03 ± 0.026
86 | CTCAATCGGG | 1.04 ± 0.021
87 | CTCAATTCTG | 0.969 ± 0.031
88 | CTCAGACAGC | 1.107 ± 0.0056
89 | CTCAGAGAAG | 1.02 ± 0.058
90 | CTCAGGGCCG | 1.05 ± 0.11
91 | CTCAGGGGGG | 1.02 ± 0.04
92 | CTCAGGTGGC | 1.04 ± 0.053
93 | CTCATATAGC | 0.999 ± 0.019
94 | CTCATCGGCT | 1.03 ± 0.03
95 | CTCATCTAAT | 0.9821 ± 0.0081
96 | CTCCATATGT | 1.039 ± 0.0016
97 | CTCCGGTTTG | 2.03 ± 1.4
98 | CTCCGTGGGG | 1.47 ± 0.042
99 | CTCCTCAGTG | 2.26 ± 0.29
100 | CTCGAGAGCT | 0.973 ± 0.018
101 | CTCGATAGGA | 1.02 ± 0.0083
102 | CTCGATGTGG | 0.985 ± 0.044
103 | CTCGCACGTT | 1.03 ± 0.032
104 | CTCGCAGGAA | 1.75 ± 0.078

Row | Sequence | switch fluorescence ratio
105 | CTCGCGTTAA | 1.11 ± 0.13
106 | CTCGCTAGGA | 1.05 ± 0.019
107 | CTCGCTCGTG | 1.03 ± 0.016
108 | CTCGCTTTTT | 1.2 ± 0.29
109 | CTCGGAACTA | 1.04 ± 0.03
110 | CTCGGACAAG | 0.9964 ± 0.0058
111 | CTCGGCCGGC | 0.982 ± 0.049
112 | CTCGGGACTT | 0.9884 ± 0.0024
113 | CTCGGGAGTA | 1 ± 0.042
114 | CTCGGGCACG | 0.989 ± 0.046
115 | CTCGGGGAGT | 1.012 ± 0.0064
116 | CTCGGTTGAC | 1.07 ± 0.015
117 | CTCGGTTGGT | 1.006 ± 0.0083
118 | CTCGTACTTA | 1 ± 0.019
119 | CTCGTCAATT | 1.52 ± 0.24
120 | CTCGTCACTC | 1.232 ± 0.0097
121 | CTCGTGTGTG | 1.044 ± 0.0073
122 | CTCGTTCCGG | 0.997 ± 0.043
123 | CTCGTTTTTG | 0.972 ± 0.012
124 | CTCTACAGGG | 1.04 ± 0.042
125 | CTCTGAGGTT | 1 ± 0.035
126 | CTCTGCGGTT | 1.891 ± 0.0039
127 | CTCTGTGTTA | 1.06 ± 0.015
128 | CTCTTAAGGG | 1.01 ± 0.018
129 | CTCTTGAATA | 0.9957 ± 0.0015
130 | CTCTTTGCC | 1.17 ± 0.27

Row | Sequence | switch fluorescence ratio
131 | CTGAAAAATT | 1.01 ± 0.078
132 | CTGAAAGAGT | 0.976 ± 0.026
133 | CTGAAAGGGA | 1.01 ± 0.02
134 | CTGAACTTTA | 1.04 ± 0.043
135 | CTGAAGCTCA | 1.91 ± 0.044
136 | CTGAAGGGAC | 1.15 ± 0.036
137 | CTGAAGGGCT | 1.04 ± 0.017
138 | CTGAATATTC | 1.021 ± 0.0036
139 | CTGAATCCGT | 1.25 ± 0.036
140 | CTGAATTAGT | 1.01 ± 0.019
141 | CTGACTGCAG | 1.01 ± 0.049
142 | CTGAGGATCG | 0.994 ± 0.034
143 | CTGAGGCCCG | 0.984 ± 0.05
144 | CTGAGGGCTG | 1.03 ± 0.028
145 | CTGAGGGGCG | 1.04 ± 0.057
146 | CTGAGGGGGG | 0.985 ± 0.019
147 | CTGAGTATGT | 0.988 ± 0.015
148 | CTGAGTCGTG | 1 ± 0.066
149 | CTGAGTGGGA | 1.02 ± 0.013
150 | CTGATAACAT | 1.02 ± 0.018
151 | CTGATGAGAG | 0.997 ± 0.051
152 | CTGATGTCGT | 1.01 ± 0.033
153 | CTGATTCAGA | 0.98 ± 0.019

From the supplement of paper PMC10126150
